{"source": "patent US20070053894", "test_system": "Soluble human recombinant p97 (melanotransferrin)", "sequence (chain, as listed by the source)": "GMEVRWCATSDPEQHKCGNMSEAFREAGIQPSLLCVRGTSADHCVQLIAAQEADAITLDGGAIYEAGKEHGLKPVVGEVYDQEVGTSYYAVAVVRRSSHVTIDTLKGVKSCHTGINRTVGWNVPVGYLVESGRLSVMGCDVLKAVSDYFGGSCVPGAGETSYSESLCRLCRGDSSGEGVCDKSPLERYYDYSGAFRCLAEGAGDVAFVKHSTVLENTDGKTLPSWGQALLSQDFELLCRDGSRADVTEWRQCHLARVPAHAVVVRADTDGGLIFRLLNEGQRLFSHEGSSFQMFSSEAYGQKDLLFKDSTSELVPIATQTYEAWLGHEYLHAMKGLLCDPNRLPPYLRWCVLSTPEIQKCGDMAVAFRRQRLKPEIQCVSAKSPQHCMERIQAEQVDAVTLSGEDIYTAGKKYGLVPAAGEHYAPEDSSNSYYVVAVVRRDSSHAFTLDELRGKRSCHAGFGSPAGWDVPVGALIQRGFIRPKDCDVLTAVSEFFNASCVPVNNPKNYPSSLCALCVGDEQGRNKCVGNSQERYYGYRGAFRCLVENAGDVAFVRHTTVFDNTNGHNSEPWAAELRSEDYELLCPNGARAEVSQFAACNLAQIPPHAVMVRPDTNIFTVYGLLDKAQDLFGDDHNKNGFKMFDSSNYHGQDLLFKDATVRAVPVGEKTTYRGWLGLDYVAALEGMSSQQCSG", "data": [{"substance": "pro-urokinase plasminogen activator (pro-uPA)", "values": [{"measurement": "VLK-pNA hydrolysis (plasminogen activation by pro-uPA) with 70 nM p97 and 30 nM plasminogen, after 180 min", "result": "the VLK-pNA hydrolysis is 4-fold higher after 180 min"}, {"measurement": "VLK-pNA hydrolysis by 90 nM pro-uPA with 70 nM p97, without plasminogen", "result": "goes from less than 50 AU/min in the absence of p97 to more than 450 AU/min when p97 is added"}, {"measurement": "half-maximal stimulation of plasminogen cleavage by pro-uPA (initial rates of plasmin activity)", "result": "half-maximal stimulation occurring at 25±6 nM"}, {"measurement": "increase of catalytic efficiency of plasminogen activation by pro-uPA with 250 nM p97", "result": "increasing the catalytic efficiency by a factor of 2.4-fold"}]}]}
